From patent US20040152193A1 (LUDWIG INSTITUTE FOR CANCER RESEARCH, published 2004)

What was measured:
[1] = molecular target: HLA-A*0201 (human); experiment: cell-based or functional assay
[2] = molecular target: HLA-A*0201 (human); experiment: cell-based or functional assay; remark: listed apart in the source

Row | Binder | Competitor [µM] 50% [1] | Relative competitor activity [1] | Relative Competitor Activity, Exp3 [2]
1 | EVDPIGHLY [MAGE-3 TRAP 168-176 peptide EVDPIGHLY] | > 100 µM | < 0.6 ratio to SEQ ID NO: 2 | 
2 | ILTVILGVL [Melan-A 32-40 nonapeptide ILTVILGVL] |  |  | 2 ratio to SEQ ID NO: 2
